In PMC11444335, “Next-generation cell-penetrating antibodies for tumor targeting and RAD51 inhibition” (Oncotarget, 2024):
Positions count from the first letter of the chain named. Names and notes keep the numbering of the source.

B1: fully humanized full-length 3E10 variant V31 (VH3 + VL1, IgG1) (antibody, V domains shown)
VH: EVQLVESGGGLVQPGGSLRLSCAASGFTFSNYGMHWVRQAPGKGLEWVAYISSGSSTIYYADTVKGRFTISRDNAKNSLYLQMTSLRAEDTAMYYCARRGLLLDYWGQGTLVTVSS
VL: DIVLTQSPASLAVSPGQRATITCRASKSVSTSSYSYMHWYQQKPGQPPKLLIYYASYLESGVPARFSGSGSGTDFTLTINPVEANDTANYYCQHSREFPWTFGGGTKVEIK
notes: humanized VH3 (CDR graft of 3E10 on germline IGHV3-48*01, with N31); human IgG1 heavy chain constant region; humanized VL1 (CDR graft of 3E10 on germline IGKV7-3*01); IgG1; all humanized variants contain the D31N mutation; source: Chinese hamster ovary cells, purified (Genscript)
B2: full-length chimeric WT 3E10 (murine variable chains, human IgG1 Fc domain) (antibody, V domains shown)
VH: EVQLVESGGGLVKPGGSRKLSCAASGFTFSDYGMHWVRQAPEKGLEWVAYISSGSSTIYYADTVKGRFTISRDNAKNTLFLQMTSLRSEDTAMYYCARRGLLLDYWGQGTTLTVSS
VL: B1 VL with P15L, T22S, Y53K, T78N, N80H, A84E, N85E, T87A, N89T, V108L
notes: murine 3E10 VH, wild type (D31 in CDR1); human IgG1 heavy chain constant region; murine 3E10 VL, wild type; IgG1 chimera; also called parental 3E10; source: purified antibody

Molecular target: T1, human RAD51 (Homo sapiens, UniProt Q06609)
T1 construct: DNA repair protein RAD51, human, expressed from the CMV-hRAD51 plasmid (Addgene #125570); Endogenous RAD51 of the MCF7 cells is also present and would be detected by the same anti-RAD51 blot; also called hRAD51; source: MCF7, transiently transfected with CMV-hRAD51 plasmid, in cells and lysate
T1 sequence (Q06609 whole entry): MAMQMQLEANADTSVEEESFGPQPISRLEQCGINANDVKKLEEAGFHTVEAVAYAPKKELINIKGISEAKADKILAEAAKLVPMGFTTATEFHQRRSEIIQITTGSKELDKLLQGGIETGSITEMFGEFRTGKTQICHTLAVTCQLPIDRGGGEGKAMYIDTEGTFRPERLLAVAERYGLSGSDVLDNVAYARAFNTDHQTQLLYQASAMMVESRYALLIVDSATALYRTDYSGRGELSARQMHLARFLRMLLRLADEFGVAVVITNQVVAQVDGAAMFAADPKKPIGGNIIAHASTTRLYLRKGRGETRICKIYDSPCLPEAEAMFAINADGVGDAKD
Assay: cross-linking + co-IP; CLIP: MCF7 cells transfected with 10 ug CMV-hRAD51 plasmid, treated with 500 nM purified antibody for 6 h, UV crosslinked, lysed; antibody captured on Protein A/G beads, eluate blotted with anti-RAD51; RAD51 signal normalized to Fc signal of the lysate and to WT
Settings: one partner purified

| binding result | Binder |
| --- | --- |
| binds | B1 |
| binds | B2 |
